Laboratory results reported in article PMC5913134, “The IL-33-PIN1-IRAK-M axis is critical for type 2 immunity in IL-33-induced allergic airway inflammation” (Nature Communications, 2018).

Test system: WT and PIN1 KO mice
Experiment: OVA-induced allergic asthma in mice
Assay type: in vivo, mouse
Details: OVA-challenged PIN1 KO vs WT mice
Description: Fig. 1 PIN1 is required for IL-33 to induces TH2 polarization and allergic inflammation. a 5 and15 min after IL-33 treatment of DC2.4 cells, cells were extracted and PIN1 activity was measured as previously described. Inset: PIN1 was immune precipitated and immune blotted for PIN1 or Ser71 phosphorylation as indicated. b WT and PIN1 KO MEF’s were treated with different concentrations of IL-33 for 24 h and the medium was measured for IL-6 secretion. c WT and PIN1 KO mice were treated with 200 ng/mice/day for 4 consecutive days and the BALF was examined for IL-4, 5, 6 and 13 by ELISA. d H&E staining representative of lungs from WT and PIN1 KO mice treated with IL-33 (n = 4). Scale bar = 50 µm. e Total cell number in the BALF of WT and PIN1 KO mice was measured using HEMAVET multispecies hematology analyzer. f Eosinophil cell number in the BALF of WT and PIN1 KO mice was measured using HEMAVET multispecies hematology analyzer. g Representative H&E staining of lung sections from WT and PIN1 KO mice after OVA-induced allergic asthma (n = 4). Scale bar = 50 µm. h IL-4, -5, -13 and IL-33 levels in the BALF of WT and PIN1 KO mice after OVA-induced allergic asthma. The groups were compared using Mann-Whitney U test (i) Total cell number in the BALF of WT and PIN1 KO mice before and after OVA-induced allergic asthma. The data were analyzed by a Student’s two-tailed t test unless stated otherwise, and the values are reported as mean ± standard errors of the means (SEM). *- statistical significance (P < 0.05), **- significance (P < 0.01)

B1: OVA: ovalbumin (OVA), inducer of model of allergic asthma (protein, UniProt P01012 2-386, looked up)
Ovalbumin: GSIGAASMEFCFDVFKELKVHHANENIFYCPIAIMSALAMVYLGAKDSTRTQINKVVRFDKLPGFGDSIEAQCGTSVNVHSSLRDILNQITKPNDVYSFSLASRLYAEERYPILPEYLQCVKELYRGGLEPINFQTAADQARELINSWVESQTNGIIRNVLQPSSVDSQTAMVLVNAIVFKGLWEKAFKDEDTQAMPFRVTEQESKPVQMMYQIGLFRVASMASEKMKILELPFASGTMSMLVLLPDEVSGLEQLESIINFEKLTEWTSSNVMEERKIKVYLPRMKMEEKYNLTSVLMAMGITDVFSSSANLSGISSAESLKISQAVHAAHAEINEAGREVVGSAEAGVDAASVSEEFRADHPFLFCIKHIATNAVLFFGRCVSP
  BALF total cells count: reduced BALF total cells count
  TH2 cytokine levels in BALF: reduced TH2 cytokine levels
  lung inflammation: reduced lung inflammation
